We go through 1 molecule from patent US9505841B2, “Use of an anti-Ang2 antibody” (Samsung Electronics Co., Ltd., priority 2013, dated 2016).

In one test the test system is tumor blood vessels. Put plainly: Lectin perfusion assay in LLC tumors. Type of test: in vivo, mouse. The settings on record: 10 mg/kg i.p., five administrations, compared to Fc- or 4H10-treated group. The protocol:
To see the functions of tumor blood vessels treated with antibody 10D6, perfusion level of the blood vessel was examined by Lectin perfusion assay. Referring to the method described in Example 14, LLC tumor cells were subcutaneously injected into mice. When the size of tumors reached 50˜100 mm^3, anti-Ang2 antibody 10D6 was injected at the concentration of 10 mg/kg via an intraperitoneal injection three times a week and the size of the tumors was measured. For comparison, the same experiment was performed to a control group treated with Fc of IgG1 and a comparative group treated with antibody 4H10 (refer to Example 3).
After administering the antibody five-times, the mice were injected with FITC-Lectin (Vector laboratory) via tail vein, and after 20 minutes, subjected to perfusion fixation. Tumor frozen sections were obtained and immunostained using hamster anti-CD31 antibody (1:200, Millipore). Images were obtained using LSM5 confocal microscope (Zeiss), and Lectin+ area/CD31+ area was quantified using ImageJ software (http://rsb.info.nih.gov/ij).

In another test the test system is LLC tumor tissues. Put plainly: H&E staining of necrotic region in LLC tumors. The conditions noted are these: 10 mg/kg i.p., five administrations, compared to Fc- or 4H10-treated group. Type of test: in vivo, mouse. The protocol:
To see the effects of the structurally and functionally normalized blood vessels in tumor by treatment of antibody 10D6 on the tumor tissues, referring to the method of Example 14, LLC tumor cells were subcutaneously injected into mice. When the size of tumors reached 50˜100 mm^3, anti-Ang2 antibody 10D6 was injected at the concentration of 10 mg/kg via an intraperitoneal injection three times a week and the size of the tumors was measured. After administering the antibody five-times, the tumor sections were stained with H&E according to standard protocol, and then, the Eosin+ cell necrotic region in tumor tissues was confirmed. For comparison, the same experiment was performed to a control group treated with Fc of IgG1 and a comparative group treated with antibody 4H10 (refer to Example 3).

A further test relates to ICAM-1. Put plainly: LPS-induced mRNA expression of ICAM-1 in HUVEC (qPCR). The settings on record: 100 ng/ml LPS 5 hours, 0.2 ug/ml Ang1 or 0.1 ug/ml Ang2 + 0.5 ug/ml antibody. It counts as cell-based, human. The protocol: To see anti-inflammatory effects by antibody 10D6, HUVEC (ATCC) cells (4×10^5) were treated with Ang2 alone or Ang2 together with antibody 10D6, and a group in which Ang1 and Ang2 (R&D systems) and Regeneron Co. antibody (RG antibody) were co-treated was included as a control group. HUVEC cells were treated with 0.2 ug/ml of Ang1, 0.1 ug/ml of Ang2, or 0.1 ug/ml of Ang2 and 0.5 ug/ml of antibody, respectively and after 30-min. pre-incubation, they were treated with 100 ng/ml of LPS (Sigma) to induce inflammatory response and incubated for 5 hours.
The degree of the inflammatory response was identified by measuring the mRNA expression degree of an inflammatory adhesion substance (ICAM-1, E-selectin). The cells were washed using PBS, RNA was extracted using RNeasy Mini kit (Qiagen), and among them, 2 ug of RNA was synthesized into cDNA using Transcriptor First Strand cDNA synthesis kit (Roche). qPCR reaction was performed using RT2 SYBR™ Green Mastermix (Qiagen) and LightCycler™ 480 Real-Time PCR System (Roche). As an internal control for calibrating the amount of RNA in a sample, HPRT1 was used, and qPCR complied with the following procedures with regard to all the primers.
Step 1: 95° C., 10 min; Step 2 (45 cycles): Step 2-1: 95° C., 15 sec; Step 2-2: 60° C., 1 min; Step 3: 65° C., 15 sec; Step 4: 95° C., continuous (every 20° C.); Step 6: 40° C., 10 sec.

The next test relates to LLC tumor. Description: Co-administration of anti-Ang2 antibody and cisplatin in LLC lung cancer animal model. The conditions noted are these: LLC mice; antibody 10 mg/kg i.p. every three days, five times; cisplatin 3 mg/kg i.p. once; control Fc of IgG1. Type of test: in vivo, mouse. The protocol:
The synergistic effect of co-treatment of antibody 10D6 and cisplatin was examined.
In particular, referring to Example 14, LLC tumor cells were subcutaneously injected into mice. When the size of tumors reached 50˜100 mm^3, anti-Ang2 antibody 10D6 was injected at the concentration of 10 mg/kg via an intraperitoneal injection every three days a total of five times. After administering antibody 10D6 twice, 3 mg/kg of cisplatin (Sigma-Aldrich) was intraperitoneally injected once. The size of tumor (V) was calculated using the following formula: Volume (V)=(width)2×length/2
For comparison, the same experiment was performed to a control group treated with Fc of IgG1 and a comparative group treated with antibody 4H10.
In addition, an experiment was performed to examine whether the synergistic effect obtained by co-administration of 10D6 and cisplatin as described above is due to the increased transporting efficiency of the administered cisplatin induced by the vascular normalization by treatment of 10D6. Cisplatin binds to DNA in a living body and induces crosslinking, thereby inducing cell death. Rat monoclonal anti-Cisplatin modified DNA (CP9/19) antibody (1:200, Abcam), which is capable of binding to DNA modified by cisplatin in tumor frozen sections, and hamster anti-CD31 antibody (1:200, Millipore), were used for immunofluorescence staining, and fluorescence images were obtained using LSM5 confocal microscope (Zeiss). In addition, to examine necrotic region, the tumor frozen sections were stained with H&E according to standard protocol, and then, Eosin+ cell region in tumor was observed. The obtained results are illustrated in FIG. 18C.

For another test, the system named is Tie2 and Akt. Description: In vivo phosphorylation of Tie2 and Akt in mouse lung tissue. The settings on record: C57BL6 mouse; 5 mg/kg antibody alone or with 20 ug Ang2, tail vein; 1 hour. The protocol:
In addition, the phosphorylation of Tie2 receptor and a protein (Akt) which participates in downstream signaling of Tie2 by treating anti-Ang2 antibody was measured in animal model (in vivo). More particularly, 5 mg/kg of antibody was injected alone or together with 20 ug of Ang2 into tail vein of 7-8 week old C57BL6 mouse, and 1 hour after, lung tissue was removed. The obtained lung tissue was subjected to homogenization lysis using lysis buffer (Roche) and FastPrep kit (MP biomedicals). Activities of Tie2 and Akt in the obtained tissue lysate were measured by the above-described method.

B1: 10D6: mouse anti-Ang2 monoclonal antibody from hybridoma KCLRF-BP-00295; heavy chain variable region SEQ ID NO: 7, light chain variable region SEQ ID NO: 9 (antibody, V domains shown)
VH: DVQLQESGPGLVKPSQSLSLTCTVTGYSITSDYAWNWIRQFPGNKLEWMGYINYSGNTDYNPSLKSRSSITRDTSKNQFFLQLNSVTTGDTATYYCARGNFEGAMDYWGQGTSVTVSS
VL: SIVMTQTPKFLLVSAGDRVTITCKASQSVSNDVAWYQQKPGQSPKLLIYYASNRYPGVPDRFTGSGYGTDFTFTISTVQAEDLAVYFCQQDYSSPWTFGGGTKLEIK
modifications: Synthetic (Heavy chain variable region of an anti-Ang2 antibody); Synthetic (Light chain variable region of anti-Ang2 antibody)
Take B1: in the test with tumor blood vessels, the “percentage of Lectin+ area in CD31+ area” value is listed as “increased” and the “perfusion function of tumor blood vessels” value is “enhanced”. In addition, the “cell necrotic region in tumor tissues” value in the test on LLC tumor tissues is reported as “smaller”. Also, the “expression of ICAM-1 induced by LPS” value with ICAM-1 is recorded as “remarkably suppressed”. Further, the “tumor size decreased by, compared to the control” value in the test on LLC tumor was found to be 38.5%. The “phosphorylation of Tie2 and Akt in lung tissue in vivo” value in the test on Tie2 and Akt is “considerable effect of phosphorylating Tie2 and a protein, Akt”.
